± gives the uncertainty stated by the source.
Test: protein stability index of a GFP-peptide fusion (yeast GPS) (PSI 1-4); higher = more stable; sorted into four equal gates, so the index is relative within each strain
Method in brief: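 Each library plasmid carries Cherry plus GFP with a tiled 17-residue yeast protein peptide fused downstream, and the pooled library was carried in yeast. Mid-log cultures in leucine-free medium were sorted into four equal gates by GFP/Cherry ratio. Reads from Illumina sequencing of PCR-amplified plasmids from each gate were assigned to strains by barcodes. Per peptide, the protein stability index was computed as the summed products of gate read frequency and gate number.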

Row | Sequence | protein stability index (doa10∆) | protein stability index (pdr5∆) | protein stability index (san1∆) | protein stability index (ubr1∆)
1 | SDPNNQSLNEMVKLIVM [YJL039C/NUP192] | 2.66 ± 0.066 | 2.74 ± 0.052 | 2.97 ± 0.078 | 2.35 ± 0.056
2 | DVKISNDFFDNGDNLYG [RPN4] | 2.39 ± 0.086 | 2.93 ± 0.063 | 2.67 ± 0.12 | 1.69 ± 0.057
3 | NPRKRAIPNSIIKRSNG [YMR153W/NUP53] | 2.19 ± 0.091 | 2.7 ± 0.1 | 2.67 ± 0.1 | 2.92 ± 0.12
4 | LFKTLFKKLTKDIFRYM [RPB2] | 1.94 ± 0.061 | 1.53 ± 0.059 | 1.33 ± 0.13 | 1.66 ± 0.055
5 | IAATGLNQINGLNNDFL [GRR1] | 3.34 ± 0.17 | 3.26 ± 0.14 | 3 ± 0.1 | 3.19 ± 0.12
6 | DTCAVSFDAVSDSIELL [YJR042W/NUP85] | 3.04 ± 0.12 | 3.46 ± 0.1 | 2.51 ± 0.25 | 2.65 ± 0.15
7 | RKRHQRALKVRNAQAQR [RPS6A] | 3.04 ± 0.14 | 2.96 ± 0.1 | 2.73 ± 0.073 | 2.96 ± 0.13
8 | SSTDIPSYTHVLISKLS [RRI1] | 2.13 ± 0.045 | 2.42 ± 0.048 | 2.42 ± 0.049 | 2.35 ± 0.037
9 | KSFYSTATGAASKSGKL [CYT1] | 2.74 ± 0.091 | 2.62 ± 0.1 | 2.87 ± 0.079 | 2.75 ± 0.059
10 | KESWDPNTTKTKLRAFV [YGR119C/NUP57] | 3.5 ± 0.22 | 2.93 ± 0.19 | 3.37 ± 0.12 | 2.77 ± 0.1
11 | VSFNDSQSMVTNKENNI [YIL149C/MLP2] | 2.96 ± 0.057 | 3.3 ± 0.076 | 3.02 ± 0.057 | 3.16 ± 0.046
12 | RENNFRVASDTVHEMEE [SMC4] |  | 3.36 ± 0.28 | 3.19 ± 0.13 | 2.95 ± 0.27
13 | NNSLSYHSGRLLIQGPK [ITC1] | 2.45 ± 0.054 | 2.3 ± 0.048 | 2.47 ± 0.062 | 2.93 ± 0.051
14 | DMENMADEQKRSTDVWY [ARP7] | 2.35 ± 0.05 | 2.31 ± 0.04 | 2.62 ± 0.053 | 2.55 ± 0.044
15 | EVKEQLGILKKKRFDEF [SMC4] |  | 2.68 ± 0.22 | 2.35 ± 0.23 | 3.03 ± 0.12
16 | GSLNATNFSPTPANNGE [SNF2] | 2.93 ± 0.055 | 3.07 ± 0.061 | 2.76 ± 0.049 | 3.04 ± 0.051
17 | LFYFDSSFRPCPLSQQF [BRR2] | 2.47 ± 0.072 | 1.89 ± 0.051 | 2.68 ± 0.061 | 2.41 ± 0.033
18 | RLPHQFRPIEIFTDFLP [RRP42] | 1.86 ± 0.068 | 1.96 ± 0.07 | 2.03 ± 0.078 | 2.21 ± 0.066
19 | MKAVGEYMKRHPTTIES [SEC65] | 1.93 ± 0.17 | 2.24 ± 0.23 | 1.64 ± 0.3 | 

Row | Sequence | protein stability index (doa10∆) | protein stability index (pdr5∆) | protein stability index (san1∆) | protein stability index (ubr1∆)
20 | ILTPESQLKKTKAQQKT [RPL7B] | 2.86 ± 0.095 | 2.89 ± 0.11 | 2.91 ± 0.076 | 2.86 ± 0.048
21 | GSIQKGMPHKFYQGKTG [RPL21A] | 3.07 ± 0.14 | 3.06 ± 0.16 | 2.9 ± 0.21 | 2.51 ± 0.28
22 | QLIFRQQTGLVDAITRC [SNU114] | 2.97 ± 0.087 | 2.69 ± 0.058 | 3.04 ± 0.052 | 2.47 ± 0.041
23 | LHGNAKKAAEEAGVTDV [FAS2] | 3.42 ± 0.12 | 3.18 ± 0.12 | 3.13 ± 0.12 | 3.34 ± 0.15
24 | LVLNKSSIDRGFGRCET [RET1] | 3.03 ± 0.28 | 3.11 ± 0.23 | 2.76 ± 0.12 | 
25 | TENVAQARIILNHILEK [YGR119C/NUP57] | 2.58 ± 0.081 | 2.87 ± 0.08 | 3.14 ± 0.067 | 2.86 ± 0.061
26 | QNKLFYITNADDSTKFQ [SIR3] | 2.96 ± 0.085 | 3.02 ± 0.084 | 3.01 ± 0.078 | 3.27 ± 0.067
27 | GNSKDDLLDMIQFGAKN [ISW2] | 3.14 ± 0.2 | 2.89 ± 0.16 | 2.95 ± 0.11 | 2.92 ± 0.093
28 | CFKPMSLTSKRLISQSL [RIP1] | 2.64 ± 0.24 | 2.42 ± 0.16 |  | 2.1 ± 0.049
29 | KNIPKTRYNRDYMLSMA [SNU114] | 1.94 ± 0.054 | 2.4 ± 0.054 | 2.9 ± 0.056 | 1.87 ± 0.039
30 | RMAKYLNNTHVISSGPL [RPC53] | 2.96 ± 0.13 | 2.91 ± 0.16 | 2.74 ± 0.074 | 2.47 ± 0.069
31 | DMLKYKEDEPVVARRSN [ITC1] | 2.96 ± 0.1 | 2.42 ± 0.098 | 1.84 ± 0.084 | 1.76 ± 0.063
32 | SRSNFQGKHTKFENDEL [LRP1] | 3.28 ± 0.091 | 2.99 ± 0.085 | 3.02 ± 0.06 | 3.22 ± 0.064
33 | LEEEFVSNSEILKPFEK [RPT2] | 2.85 ± 0.074 | 2.88 ± 0.054 | 3.05 ± 0.073 | 2.51 ± 0.14
34 | EISISFDVNNIDMHLIY [YDL116W/NUP84] | 1.94 ± 0.082 | 2.43 ± 0.093 | 2.02 ± 0.089 | 2.25 ± 0.057
35 | KSSPISNEAAKPSFSFP [YOR098C/NUP1] | 2.86 ± 0.05 | 2.93 ± 0.045 | 2.96 ± 0.037 | 3 ± 0.04
36 | SNDRVNPLIELTPIQKK [ITC1] | 2.92 ± 0.2 | 1.99 ± 0.13 | 2.15 ± 0.27 | 2.65 ± 0.11
37 | VVLVSGEGERFTVDKKI [SKP1] | 3.53 ± 0.11 | 3.6 ± 0.12 | 3.28 ± 0.075 | 2.97 ± 0.094
38 | DTKPFLNKDSTNEFVGS [NUT1] | 3.09 ± 0.064 | 2.79 ± 0.054 | 2.44 ± 0.062 | 3.04 ± 0.039

From the supplement of paper PMC9732359
